Measured values reported in publication PMC12648313, “Enhancing the Efficacy, Utility, and Throughput of the Transcription Block Survival Peptide Library Screening Platform” (JACS Au, 2025).

Assays:
FAM-labeled CRE DNA = assay: FP DNA binding, ATF2; conditions: ATF2 12 nM-10 μM, 10 nM FAM-CRE DNA; 20 mM potassium phosphate, 50 mM NaCl, 5 mM MgCl2, 10 mM TCEP, pH 7.4; 1 h, room temperature; one site model
FAM-CRE DNA = assay: FP DNA binding, CREB1; conditions: pH 7.4
Procedure: (§1) removed before peptide concentration determination.
(§2) Peptide samples were suspended in 20
(§3) Post-melt scans at 20°C confirmed the
(§4) Sequential 2 µL injections of ATF2W (50 µM)
(§5) Data from a control experiment whereby […]
(§6) errors are given as one standard deviation.
(§7) Fluorescence polarisation: Fluorescence polarisation was measured in a CLARIOstar […]
(§8) chloride, 5 mM MgCl2, 10 mM TCEP, pH 7.4 buffer. Palindromic FAM-CRE DNA oligo was […]
(§9) purchased from Merck: 5’[6FAM]- GCGCTGACGTCAGCGC. 200 µM of the oligo was […]
(§10) prepared in water and then annealed by heating to 95°C for 10 minutes before cooling slowly to room temperature to give a 100 µM duplex stock. Samples containing 10 nM FAM-CRE and a serial dilution of ATF2 (12 nM-10 µM) were prepared and incubated at room temperature for 1 hour before transferring to the assay plate for measurement. Data were fit to a one site binding model. For antagonism experiments, the ATF2 concentration required for 80% response was selected. Samples containing 10 nM FAM-TRE, 625 nM ATF2 and a serial dilution of ATF2W (29 nM-12 µM) were prepared and incubated at room temperature for 2 hours before transferring to the assay plate for measurement. CREB1/CRE, cJun/TRE and DLX5/H-box DNA antagonism were determined by the equivalent experiments, using the FAM-CRE oligo above; FAM-TRE DNA oligoes: 5’-[6FAM]-TCTCTGACTCAGAGA, 5’- […]

[1] = system: CREB1 bZIP-CRE DNA (CRE mDHFR reporter); assay: TBS growth assay: transcription block relief / peptide antagonism in E. coli (CREB1/CRE); format: cell-based, E. coli BL21-Gold; conditions: M9 agar, 8 μM TMP, 1 mM IPTG, three independent experiments
Excerpt: To validate the new TBS constructs, six BL21-Gold E. coli control strains were generated. Empty plasmids (lacking gene of interest) were used to control for replication and antibiotic stresses (Table ): Control strains 1 and 4 contained mDHFR gene reporter plasmids for 5xCRE and 9xCRE respectively, and two empty plasmids; control strains 2 and 5 contained reporter plasmid, target plasmid encoding the CREB1 basic-leucine zipper (bZIP) domain and one empty plasmid; control strains 3 and 6 contained reporter plasmid, target plasmid and the antagonist plasmid encoding A-CREB (peptide inhibitor of CREB1 comprising a rationally designed acidic extension appended to the N-terminus of the CREB1 LZ).
2 Introduction of CRE DNA sites into the 5′-promoter/UTR region of a mDHFR plasmid facilitates effective transcription block. […]
(§11) pressure respectively. Three independent growth experiments were conducted for each strain/condition with the percentage of the plate covered by bacterial colonies determined using ImageJ 1.54G. Images were converted to 8-bit, threshold values were set to identify coverage, and the resulting black and white image was measured for percentage coverage in a defined circle excluding the plate edge. Percentage coverage was utilised to quantify both bacterial survival and growth rate.

E. coli = assay: TBS growth without TMP (cellular toxicity of expression); format: cell-based, E. coli BL21-Gold; conditions: strain 10, 0 μM TMP, 0.8 mM IPTG
Procedure: (§12) 3 Introduction of H-box DNA sites into the 5′-promoter/UTR region of a mDHFR plasmid enables transcription block by both DLX5 full length and homeodomain. Equal numbers of cells from the control strains (Table ) were plated on selective M9 agar (0 or 8 μM TMP, 0.8 or 0.2 mM IPTG) and incubated (30 or 37 °C) before imaging. Bar charts show % plate coverage for three independent experiments with error bars shown as one standard deviation. Select p values from a t test are indicated (*p ≤ 0.05; **p ≤ 0.01; ns = not significant).
(§13) Enhancing the efficacy, utility and throughput of the Transcription Block Survival peptide library screening platform
(§14) Andrew Brennan1,2, T M Simon Tang1 and Jody M Mason1,2
(§15) 1Department of Life Sciences, University of Bath, Bath BA2 7AY, United Kingdom 2Address correspondence to JMM or AB (j.mason@bath.ac.uk; ab3107@bath.ac.uk) […]
as §11

[2] = system: 9xDLX (H-box) mDHFR reporter; assay: TBS growth assay: transcription block by DLX5 HD / FL; format: cell-based, E. coli BL21-Gold; conditions: 8 μM TMP; for colony formation on target expression (transcription block): strains 9 (HD) and 10 (FL) vs 8, 9xDLX mDHFR, M9 agar, 0.8 or 0.2 mM IPTG, 30 or 37 °C, three independent experiments
Excerpt: To highlight the platforms versatility for TFs with distinct DNA recognition motifs, we next constructed a 9xhomeobox (H-Box) system to identify inhibitors of homeodomain-containing TFs, including the DLX (Figure C), pre-B cell leukemia transcription factor (PBX) and orthodenticle homeobox protein (OTX) families. As with the CRE-based design, nine H-box consensus sequences were inserted into the 5′-promoter/UTR region of the mDHFR reporter gene (Figure S4).
as §12, §13, §14, §15
Plasmid constructs: Target cognate binding sequence-containing inserts were produced using PCR fill-in reactions from synthesised primers (Merck). They were then subcloned using XhoI and SphI sites into the pQE16-derivative pES300d WT mDHFR plasmid (Figure S1, S2, S3). […]
as §11

FAM-H-Box DNA = assay: FP DNA binding, DLX5; conditions: pH 7.4
Procedure: as §1, §2, §3, §4, §5, §6, §7, §8, §9, §10

cJun bZIP [3] = molecular target: cJun bZIP (UniProt P05412); assay: fluorescence polarization; conditions: FP: chloride salt (buffer and salt concentration truncated in material), 5 mM MgCl2, 10 mM TCEP, pH 7.4; 10 nM FAM-DNA; 1 h incubation, temperature not in …
cJun bZIP [4] = molecular target: cJun bZIP (UniProt P05412); assay: competition (FP); conditions: antagonist peptide ATF2W; FP: chloride salt (buffer and salt concentration truncated in material), 5 mM MgCl2, 10 mM TCEP, pH 7.4; 10 nM FAM-DNA; 1 h incubation, temperature not in …
DLX5 HD = DLX5 HD (UniProt P56178 138-198); assay: fluorescence polarization; FP: chloride salt (buffer and salt concentration truncated in material), 5 mM MgCl2, 10 mM TCEP, pH 7.4; 10 nM FAM-DNA; 1 h incubation, temperature not in material; conditions: label: 5' 6-FAM; blunt; self-complementary, 2 copies
ATF2 bZIP [5] = molecular target: T1, ATF2 bZIP (human, UniProt P15336 352-410); assay: competition (FP); antagonist peptide ATF2W 29 nM-12 uM, 625 nM ATF2; FP: chloride salt (buffer and salt concentration truncated in material), 5 mM MgCl2, 10 mM TCEP, pH 7.4; 10 nM FAM-DNA; 1 h incubation, temperature not in material; conditions: chain copies: 2; label: 5' 6-FAM; blunt; self-complementary, 2 copies
T1 sequence: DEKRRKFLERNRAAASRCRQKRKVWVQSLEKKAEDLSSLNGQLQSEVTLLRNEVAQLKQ

CREB1 bZIP [6] = molecular target: T2, CREB1 bZIP (UniProt P16220 269-327); assay: competition (FP); antagonist peptide ATF2W; FP: chloride salt (buffer and salt concentration truncated in material), 5 mM MgCl2, 10 mM TCEP, pH 7.4; 10 nM FAM-DNA; 1 h incubation, temperature not in material; conditions: chain copies: 2; label: 5' 6-FAM; blunt; self-complementary, 2 copies
T2 sequence: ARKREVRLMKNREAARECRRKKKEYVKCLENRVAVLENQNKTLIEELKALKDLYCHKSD

CREB1 bZIP [7] = molecular target: T2, CREB1 bZIP; assay: fluorescence polarization; FP: chloride salt (buffer and salt concentration truncated in material), 5 mM MgCl2, 10 mM TCEP, pH 7.4; 10 nM FAM-DNA; 1 h incubation, temperature not in material; conditions: chain copies: 2; label: 5' 6-FAM; blunt; self-complementary, 2 copies
ATF2 bZIP [8] = molecular target: T1, ATF2 bZIP; assay: competition (FP); antagonist: non-selected library member control peptide; FP: chloride salt (buffer and salt concentration truncated in material), 5 mM MgCl2, 10 mM TCEP, pH 7.4; 10 nM FAM-DNA; 1 h incubation, temperature not in material; conditions: chain copies: 2; label: 5' 6-FAM; blunt; self-complementary, 2 copies
ATF2 bZIP [9] = molecular target: T1, ATF2 bZIP; assay: fluorescence polarization; 10 nM DNA, ATF2 12 nM-10 uM; FP: chloride salt (buffer and salt concentration truncated in material), 5 mM MgCl2, 10 mM TCEP, pH 7.4; 10 nM FAM-DNA; 1 h incubation, temperature not in material; conditions: chain copies: 2; label: 5' 6-FAM; blunt; self-complementary, 2 copies
FAM-TRE DNA = assay: FP DNA binding, cJun; conditions: pH 7.4
Procedure: as §1, §2, §3, §4, §5, §6, §7, §8, §9, §10

DLX5 HD, sequence (P56178 138-198): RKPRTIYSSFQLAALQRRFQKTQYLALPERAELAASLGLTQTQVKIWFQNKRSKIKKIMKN

“ATF2: human ATF2 bZIP domain spans from Asp352 to Gln410” was tested, and the Kd (FAM-labeled CRE DNA) was 277 ± 19 nM.

In the case of “CREB1: CREB1 bZIP domain spans from Ala283 to Asp341 (ARKREVRLMKNREAARECRRKKKEYVKCLENRVAVLENQNKTLIEELKALKDLYCHKSD)”, the Kd (FAM-CRE DNA) is reported as 156 ± 26 nM and the “bacterial growth on target expression (transcription block)” value ([1]; strains 2 and 5 (5xCRE and 9xCRE mDHFR)) is reported as “markedly reduced growth”.

DLX5 FL: full-length DLX5 was tested, and the “growth in absence of TMP (cellular toxicity)” value (E. coli) was “reduced growth was also observed in the absence of TMP”, the “growth inhibition on target expression, comparison FL vs HD” value ([2]; strain 10 vs 9, optimized conditions: 0.2 mM IPTG or 30 °C) was “produced a robust transcriptional block and more effectively suppressed E. coli growth than DLX5 HD” and the “colony formation on target expression (transcription block)” value [2] was “introduced a transcriptional block, resulting in reduced colony formation”.

In the case of “DLX5: DLX5 HD spans from Val137 to Asn198”, the “colony formation on target expression (transcription block)” value [2] is reported as “less pronounced than in the corresponding CRE system” and the Kd (FAM-H-Box DNA) is reported as 383 ± 19 nM.

For “LEQQLEELAQENEELEKEAEELEQELAELENRVAVLENQNKTLIEELKALKDLYCHKSD [A-CREB, reference compound]”, the “bacterial growth restoration (relief of transcriptional block)” value ([1]; strains 3 and 6 (5xCRE and 9xCRE mDHFR) expressing CREB1 bZIP and A-CREB, % plate coverage) was “Growth was restored”.

With “TCTCTGACTCAGAGA (double strand) [FAM-TRE]” the Kd (cJun bZIP [3]) was 330 nM and the IC50 (cJun bZIP [4]) was 1850 nM.

B1: FAM-H-Box (dsDNA)
DNA 1: TCTCTAATTAGAGA
DNA 2: TCTCTAATTAGAGA
B1 gave a Kd (DLX5 HD) of 383 ± 19 nM.

B2: FAM-CRE (dsDNA)
DNA 1: GCGCTGACGTCAGCGC
DNA 2: GCGCTGACGTCAGCGC
B2 was tested, and the IC50 (ATF2 bZIP [5]) was 667 ± 71 nM, the IC50 (CREB1 bZIP [6]) was 2360 ± 59 nM and the Kd (CREB1 bZIP [7]) was 156 ± 26 nM. The IC50 (ATF2 bZIP [8]) was 3.69 ± 0.11 µM and the Kd (ATF2 bZIP [9]) was 277 ± 19 nM.

B3: cJun: purified cJun bZIP (protein)
chain: RIKAERKRMRNRIAASKCRKRKLERIARLEEKVKTLKAQNSELASTANMLREQVAQLKQKVMNH
B3 was tested, and the Kd (FAM-TRE DNA) was 330 ± 42 nM.
